This note sets out measurements from the nanobody polyreactivity screen of Harvey et al. (2022).

This data set can be described thus: yeast display, Sf9 membrane polyspecificity reagent, FACS + sequencing; frameworks hold sequencing errors. Summed up:
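After 36–48 hours of galactose induction, yeast (Saccharomyces cerevisiae BJ5465) displaying a synthetic nanobody library were stained at 4 °C for 1 hour with 10% biotinylated, detergent-solubilized Sf9 membrane reagent. Streptavidin microbeads enriched the stained cells before FACS sorting into low and high (top ~1%) gates on anti-HA and streptavidin fluorescence. Each clone's polyreactivity label reflects its gate of origin.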
For the sequence “QVQLVESGGGLVQAGGSLRLSCAASGSIFNRYTMGWYRQAPGKETELVAAISRGDTTYYADSVKGRFTISRDNAKNTVYLEMNSLKPEDTAVYYWAKAYDTTLTYNYWGQVTQVTVSS”, the “polyreactivity (PSR sort gate)” value is listed as “low polyreactivity”.

Turning to “QVQLVESGGGLVQAGGSLRLSCAASGFIISPYAMGWYRQAPGKERELVAAISWSGVSTYYADSVKGRFTISRDNAKNTVYLQMNSLKPEDTAVYYCATYRPVYYWGQGTQVTVSS”, the “polyreactivity (PSR sort gate)” value is on record as “high polyreactivity”.

Turning to “QVQLVESGGGLVQAGGSLRLSCAASGRTFWWYTMGWYRQAPGKERELVAVISSTGGRTYYADSVKGRFTISRDNAKNTVYLQMNSLKPEDTSVYYCAAEYVSAKWEYGYWGQGTQVTVSS”, the “polyreactivity (PSR sort gate)” value is given as “low polyreactivity”.

Consider “QVQLVESGGGLVQAGGSLRLSCAAYGSIFHVYAMGWYRQAPGKERELVAAIDRSGGSTYYADSVKGRFTISRDNAKNTVYLQMNSLKPEDTSVYYCAKDVLGGQITDGVGNDYWGQGTQVTLSS”, for which the “polyreactivity (PSR sort gate)” value is “low polyreactivity”.

For “QVQLVESGGGLVQAGGSLRLSCAASGSIFKVYAMGWYRQAPGKEREWVAAITWRGGSTYYADSVKGRFTISRDNAKNTVYLQMKSLKPEDTAVYYCGTEYCWKYDYWGQGTQVTVSS”, the “polyreactivity (PSR sort gate)” value is listed as “low polyreactivity”.

In the case of “QVQLVESGGGLVQAGGSLRLSCAASGSTFWYYAMGWSRQAPGKERELVAAIRWSDGSTYYADSVKGRFTISRDNAKNTVYLQMNSLKPEDTAVYYCEYYYWGLGTQVTVSS”, the “polyreactivity (PSR sort gate)” value is “low polyreactivity”.

“QVQLVESGGGLVQAGGSLRLSCAASGSSFRAYAMGWYRQAPGKERELVAVITYSGDRTYYADSVKGRFTISRDNAKNTVYLQMNSLKPEDTAVYYCAADLQYWHSYSYDDYYYWGQGTQVTVSS”: the “polyreactivity (PSR sort gate)” value is recorded as “low polyreactivity”.

As for “QVQLVESGGGLVQAGVSLRLSCAASGRTFALNVMGWYRQAPGKERELVAAISRSGGSTYYAESVKGRFTISRDNAKNTVYLQMNSLKPEDTAVYYCAAATHYQSYNRRDYWGQGTQVTVSS”, the “polyreactivity (PSR sort gate)” value was “high polyreactivity”.

With “QVQLVESGGGLVQAGGSLRLSCAASGIIFESYAMGWYRPAPGKERELVAAISWDGGSTYYADSVKGRFTISRDNAKNTVYLQMNSQKPEDTAVYYCAAESYGIYDGYDYWGQGTQVTVSS”, the “polyreactivity (PSR sort gate)” value is “high polyreactivity”.

Consider “QVQLVESGGGLVQAGGRLRFSCAASGNTFPHNTMGWYRKAPGKERELVSTNYADSVKGRFTISRDNAKNSVYLQMNSLKPEDTAVYYCHADGTFEYDYWGQGTQVTVSS”, for which the “polyreactivity (PSR sort gate)” value is “low polyreactivity”.

As for “QVQLVESGGGLVQAGGSLRLSCAASGFTFRFYVMVWYRLAPGKERELVAAITASGGTTYYADSVKGRFTISRDNAKNSVYLQMNSLKPEDTAVYYCNALYYYLYGYDYWGQGTQVTVSS”, the “polyreactivity (PSR sort gate)” value is recorded as “high polyreactivity”.

In the case of “QVQLVESGGGLVQAGGSLRLSCAASGSTSNVYAMGWYRQAPGKERELVAAIRWSGGNTYYADSVKGRFTISRDNAKNTFYLQMNSLKPEDTAVYYCAAFYRYVSTIFDYWGQGTQVTVSS”, the “polyreactivity (PSR sort gate)” value was “high polyreactivity”.

Take “QVQLVESGGGLVQAGGSLRLSCAASGFIFRGYAMGWYRQAPGKERELVAAITYSTGNTYYADSVKGRFTISRDNAKNTVYLQMNSLKPEDTAVYYCNKVVRKFIGGYVYYSGGYWGQGTQVTVSS”: the “polyreactivity (PSR sort gate)” value is listed as “low polyreactivity”.

Take “QVQLVESGGGLVQAGGSLRLSCAASGRTFTYYAMGWSRQAPGKERELVASITSGGSTYADSVKGRFTISRDNAKNTVYLQMNSLKPEDTAVYYCAARAWGYRYKYYWGQGTQVTVSS”: the “polyreactivity (PSR sort gate)” value is “high polyreactivity”.

Turning to “QVQLVESGGGLVQAGGSLRLSCAASGRTFRVYARGWYRQAPGKERELVATITSSGGSTYYADSVKGRFTISRDNAKNTVYLQMNSLKPEDTAVYYCNVSVYYNYDSSYYYWGQGTQVTVSS”, the “polyreactivity (PSR sort gate)” value is recorded as “low polyreactivity”.

As to “QVQLVESGGGLVQAGGSLRLSCAASGSIFSPNAMGWYRQAPGKERELVASITNGGSTYYADSVKGRFTISRDNAKNTVYLQMNSLKPEDTAVYYCAADHNETGLRVKVYEYDYWGQGTQVTVSS”, the “polyreactivity (PSR sort gate)” value is “low polyreactivity”.

As for “QVQLVESGGGLVQAGGSLRLSCAASGRTFNKYAMGWYRKAPGKERELVAAINYSGGRTYYADSVKGRFTISRDNAKNTVSLQMNSLKPEDTAVYYCNRDDAWQEYDYWGQGTQVTVSS”, the “polyreactivity (PSR sort gate)” value is “low polyreactivity”.

With “QVQLVESGGGLVQAGGSLRLSCAASGSNFGSYTMGWSRQAPGKERELVAAISLGGGSTYYADSVKGRFTISRDNAKNTVYLQMNSLKPEDTAVYYCAAGFTDPYDYWGQGTQVTVSS”, the “polyreactivity (PSR sort gate)” value is given as “low polyreactivity”.

On to “QVQLVESGGGLVQAGGSLRVSCAASGIIFRYNAMGWSRQAPGKESELVAAITSGGITKYADSVKGRFTISRDNAKNTVYLQMNSLKPEDTAVYYCNAEYGFDRAGSRGEYWGQCTQVTVSS”, for which the “polyreactivity (PSR sort gate)” value was “low polyreactivity”.

Regarding “QVQLVESGGGLVQAGGSLRLSCAASGSIFDVYAMGWYRQAPGKERELVATISNSAGSTYYADSVKGRFTISRDNAKNTVYLQMNSLKPEDTAVYYCAAVVVYFDEYDYWGQGTQVTVSS”, the “polyreactivity (PSR sort gate)” value is given as “low polyreactivity”.

On to “QVQLVESGGGLVQAGGSLRLSCAASGRTFYQNAMGWYRQAPGKERELVAAISYRGASTYYADSVKGRFTISRDNAKNTVYLQMHSLKPEDTAVYYCAVAARTRARVLYGYDYWGQGTQVTVSS”, for which the “polyreactivity (PSR sort gate)” value is “low polyreactivity”.

As for “QVQLVESGGGLVQAGGSLRLSCAASGLIFHQYAMGWYRQAPGKERELVAAITRSGTRTYYADSVKGRFTISRDNAKNTVYLQMNSLKPEDTAVYYCAAADTQGVSMDYWGQGTQVTVSS”, the “polyreactivity (PSR sort gate)” value is “high polyreactivity”.

“QVQLVESGGGLVQAGGSLRLSCAASGSTFRYYAMGWYRQAPGKERELVAAISGSGGRTYYADSVKGRFTISRDNAKNTVYLQMNSLKPEDTAVYYCAASRYQFYWGQGTQVTVSS”: the “polyreactivity (PSR sort gate)” value was “high polyreactivity”.

Consider “QVQLVESGGGLVQAGGSLRLSCAASGFTFKFNTMGWYRQAPGKERELVAANSWRGGDTSYADSVKGRFTISRENAKNTVFLQMYSLKPEDNAVYYCAARSTSIGQRSLHYGYWGQGTQVTVSS”, for which the “polyreactivity (PSR sort gate)” value is “low polyreactivity”.

As for “QVQLVESGGGLVQAGGSLRLSCSASGRTSVLYAMGWYRQAPGKEREFVAAITWNSGSTYYADSVKGRFTISRDHAKNTVYLQMISLKPEDTAVYYCNADYYFSSYRSTYDYWGQGTQVTVSS”, the “polyreactivity (PSR sort gate)” value was “low polyreactivity”.

As for “QVQLVESGGGLVQAGGSLRLSCAASGSTFWPYAMGWYRQATGKERELVAAISNGGGTKYADSVKGRFTISRDNAKNTVYLQMNSLKPEDTAVYYCAKTLWTGRAWYDYWGQGTQVTVSS”, the “polyreactivity (PSR sort gate)” value was “high polyreactivity”.

Regarding “QLQLVDSGGGLVQAGGSLRLSCAASGKTISSYAMGWYRQAPGKEREFVAAISRGARTYYADSVKGRFTISRDNAKNTVYLQMNSLKPEDTAVYYCATRWPHYGGYYYWGQGTQVTVSS”, the “polyreactivity (PSR sort gate)” value was “high polyreactivity”.

Regarding “QVQLVESGGGLVQAGGSLRLSCAASGFISTYYAMGWYRQAPGKERELVAAISWNGGSTYYADSVKGRFTISRDNAKNTVYLQMNSLKPEDTADYYCAAYLGKWRQFYSSDYDYWGQGTQVTVSS”, the “polyreactivity (PSR sort gate)” value is “low polyreactivity”.

As for “QVQLVESGGGLVQAGGSLRLSCAASGRIFAWNDMGWYRQAPGKERELVAAITSGGSTYYADSVKGRFTISRDNAKNTVYLQMNSLKPEDTAVYYCAADRVRRNDKLAYDYWGQGTQVTVSS”, the “polyreactivity (PSR sort gate)” value is “low polyreactivity”.

Take “QVQLLESGGGLVQAGGSLRLSCAASRTISYAGTRLWYRQAPGKEREFVAGIGVGSNTNYADSVKGRYTIIRDNAINTVYLQMTSLKPEDTAVYYCAVGGYAPLGRPFWGQGTQVSVSS”: the “polyreactivity (PSR sort gate)” value is on record as “low polyreactivity”.

On to “QVQLVESGGGLVQAGGSLRLSCAASGSTFPYYTMGWYRQAPGKERELVAAITWRGGRTYYADSVKGRFTISRDNAKYTVYLQMNSLKPEDTAVYYCNAYGIDTGDYWGQGTQVTVSS”, for which the “polyreactivity (PSR sort gate)” value was “high polyreactivity”.

Regarding “QVQLVESGGGLVQAGGSLRLSCAASGSIFLLYAMGWYRQAPGKERELVARISWSGDNTRYADSVKGRFTISRDNAKNTVYLQMNSLKPEDTAVYYCNAYYFYGQWKGYDYWGQGTQVTVSS”, the “polyreactivity (PSR sort gate)” value was “low polyreactivity”.

In the case of “QVQLVESGGGLVQAGGSLRLTCAASGSIIALYAMGWYRQAPGKERELVATISSCVSTYYADSVKGRFTISRDNAKNTVYLQLNSLKPEDTAVYYCAADKTVRSSNYDYWGQCTQVTVSS”, the “polyreactivity (PSR sort gate)” value is reported as “low polyreactivity”.

With “QVQLVESGGGLVQAGGSLRLSCAASGRIFSTYVMGWYRQAPGKERELVAAITWSGGSTYYADSVKGRFTISRDTAQNTVYLQMNTLKPEDTAVYYCAADEIYGYDYWGQGTQVTVSS”, the “polyreactivity (PSR sort gate)” value is recorded as “high polyreactivity”.

Take “QVQLVESGGGLVQAGGSLRLSCAASGYTFYGYAMGWYRQAPGKERELVAAISWSGTNTNYADSVKGRFTISRDNAKNTVYLQMNSLKPEDTAVYYCAAGYYYRGFHTEDYWGQGTQVTVSS”: the “polyreactivity (PSR sort gate)” value was “high polyreactivity”.

Take “QVQLVESGGGLVQAGGSLRISCAASGRIFYYNAIGWYRQAPGKERELVATITGSGGSSYYADSVKGRFTISRDNAKNTVYLQMKTLKPEDSAVYYCIASRWYYDFYNLDYWGQGTQVTVSS”: the “polyreactivity (PSR sort gate)” value is “low polyreactivity”.

With “QVQLVESGGGLVQAGGSLRLSCAASGSIFAPYVMGWYRQAPGKERELVAAITESGGRTYYADSVKGRFTISRDNAKNTVYLQMNSLKPEDTAVYYCAARTYDRNRQLRRQWYDYWGQGTQVTVSS”, the “polyreactivity (PSR sort gate)” value was “high polyreactivity”.

With “QVQLVESGGGLVQAGGSLRLSCAASGGIFAHYVMGWYRQAPGKERELVAAISASGGSTYYADSVKGRFTISRDNAKNTVYLQMNSLKPEDTAVYYCAAYYLAWYAYRYKTVGSAMDHWGQGTQVTVSS”, the “polyreactivity (PSR sort gate)” value is on record as “low polyreactivity”.

On to “QVQLVESGGGLVQAGGSLRLSCAASGRIIYAYAMGWYRQTPGKERELVAAISTRGGTTYYADSVKGRFTISRDNAKNTVYLQMNSLKPEDTAVYYCNALRVSRRVGYDSWGKGTQVTVSS”, for which the “polyreactivity (PSR sort gate)” value was “high polyreactivity”.

Consider “QVQLVESVGGVVQAGGSLRLCCAANRSTFAAKAMGWYRQAPGKERELGAAITSGGGTNYADSVKGRFTISRDNAKNTVYLQMNSLKPEDTAVYYCAARTWPWVLGATQDDYWGQGTQVTLSS”, for which the “polyreactivity (PSR sort gate)” value was “low polyreactivity”.

For the sequence “QVQLVESGGGLVQAGGSLRLSSAASVSTVTPYAMGWYRQAPGKERELVAVISESGGSTYYADSVKGRFTISRDNAKNTVYLQMNSLKPEDTAVYYCAKASYPEVLYYFFRGYTFDSWGQGTQVTVSS”, the “polyreactivity (PSR sort gate)” value is recorded as “low polyreactivity”.
